# In patent publication US20140213513A1 (Sanofi, priority 2012, published 2014):
# *1 amine or outer side, *2 acyl side, *3 side chain or, on linkers, in order; H or OH if unused. Where no end group is shown, it is not given here. Side-chain parts run from the residue outwards. [ ]: non-standard residue; d: D form. The star is where a group is joined. γGlu = O=C(O)[C@H](CCC(=O)[*:2])N[*:1]; Palmitoyl = CCCCCCCCCCCCCCCC(=O)*; Aib = CC(C)(N)C(=O)O
# T1: human GIP receptor (human, UniProt P48546 22-466)
# T1 sequence (looked up): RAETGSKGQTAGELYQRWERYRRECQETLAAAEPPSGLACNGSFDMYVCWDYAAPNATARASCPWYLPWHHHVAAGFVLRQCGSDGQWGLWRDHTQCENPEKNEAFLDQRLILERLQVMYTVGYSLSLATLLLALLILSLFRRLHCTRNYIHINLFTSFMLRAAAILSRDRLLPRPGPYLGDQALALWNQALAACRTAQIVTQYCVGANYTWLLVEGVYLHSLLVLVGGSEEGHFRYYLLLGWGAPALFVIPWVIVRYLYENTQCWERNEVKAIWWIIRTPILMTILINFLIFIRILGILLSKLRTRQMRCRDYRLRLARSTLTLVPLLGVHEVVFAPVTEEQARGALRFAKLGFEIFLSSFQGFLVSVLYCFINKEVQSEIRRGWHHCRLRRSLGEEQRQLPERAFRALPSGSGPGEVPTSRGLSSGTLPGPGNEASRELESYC
# B1: exendin-4 peptide analogue SEQ ID NO: 45 (peptide)
# peptide: Y[Aib]QGTFTSDLSIQK([γGlu-Palmitoyl])EKRAAQLFIEWLKNGGPSSGAPPPS-NH2
# modifications: N-terminus assumed
# SMILES: CCCCCCCCCCCCCCCC(=O)N[C@@H](CCC(=O)NCCCC[C@H](NC(=O)[C@H](CCC(N)=O)NC(=O)[C@@H](NC(=O)[C@H](CO)NC(=O)[C@H](CC(C)C)NC(=O)[C@H](CC(=O)O)NC(=O)[C@H](CO)NC(=O)[C@@H](NC(=O)[C@H](Cc1ccccc1)NC(=O)[C@@H](NC(=O)CNC(=O)[C@H](CCC(N)=O)NC(=O)C(C)(C)NC(=O)[C@@H](N)Cc1ccc(O)cc1)[C@@H](C)O)[C@@H](C)O)[C@@H](C)CC)C(=O)N[C@@H](CCC(=O)O)C(=O)N[C@@H](CCCCN)C(=O)N[C@@H](CCCNC(=N)N)C(=O)N[C@@H](C)C(=O)N[C@@H](C)C(=O)N[C@@H](CCC(N)=O)C(=O)N[C@@H](CC(C)C)C(=O)N[C@@H](Cc1ccccc1)C(=O)N[C@H](C(=O)N[C@@H](CCC(=O)O)C(=O)N[C@@H](Cc1c[nH]c2ccccc12)C(=O)N[C@@H](CC(C)C)C(=O)N[C@@H](CCCCN)C(=O)N[C@@H](CC(N)=O)C(=O)NCC(=O)NCC(=O)N1CCC[C@H]1C(=O)N[C@@H](CO)C(=O)N[C@@H](CO)C(=O)NCC(=O)N[C@@H](C)C(=O)N1CCC[C@H]1C(=O)N1CCC[C@H]1C(=O)N1CCC[C@H]1C(=O)N[C@@H](CO)C(N)=O)[C@@H](C)CC)C(=O)O
# B2: exendin-4 peptide analogue SEQ ID NO: 47 (peptide)
# peptide: Y[Aib]QGTFTSDLSIQK([γGlu-Palmitoyl])DKRAVQLFIEWLKNGGPSSGAPPPS-NH2
# modifications: N-terminus assumed
# SMILES: CCCCCCCCCCCCCCCC(=O)N[C@@H](CCC(=O)NCCCC[C@H](NC(=O)[C@H](CCC(N)=O)NC(=O)[C@@H](NC(=O)[C@H](CO)NC(=O)[C@H](CC(C)C)NC(=O)[C@H](CC(=O)O)NC(=O)[C@H](CO)NC(=O)[C@@H](NC(=O)[C@H](Cc1ccccc1)NC(=O)[C@@H](NC(=O)CNC(=O)[C@H](CCC(N)=O)NC(=O)C(C)(C)NC(=O)[C@@H](N)Cc1ccc(O)cc1)[C@@H](C)O)[C@@H](C)O)[C@@H](C)CC)C(=O)N[C@@H](CC(=O)O)C(=O)N[C@@H](CCCCN)C(=O)N[C@@H](CCCNC(=N)N)C(=O)N[C@@H](C)C(=O)N[C@H](C(=O)N[C@@H](CCC(N)=O)C(=O)N[C@@H](CC(C)C)C(=O)N[C@@H](Cc1ccccc1)C(=O)N[C@H](C(=O)N[C@@H](CCC(=O)O)C(=O)N[C@@H](Cc1c[nH]c2ccccc12)C(=O)N[C@@H](CC(C)C)C(=O)N[C@@H](CCCCN)C(=O)N[C@@H](CC(N)=O)C(=O)NCC(=O)NCC(=O)N1CCC[C@H]1C(=O)N[C@@H](CO)C(=O)N[C@@H](CO)C(=O)NCC(=O)N[C@@H](C)C(=O)N1CCC[C@H]1C(=O)N1CCC[C@H]1C(=O)N1CCC[C@H]1C(=O)N[C@@H](CO)C(N)=O)[C@@H](C)CC)C(C)C)C(=O)O
# B3: exendin-4 peptide analogue SEQ ID NO: 49 (peptide)
# peptide: Y[Aib]QGTFTSDLSIQK([γGlu-Palmitoyl])DSIAAQDFIEWLKAGGPSSGAPPPS-NH2
# modifications: N-terminus assumed
# SMILES: CCCCCCCCCCCCCCCC(=O)N[C@@H](CCC(=O)NCCCC[C@H](NC(=O)[C@H](CCC(N)=O)NC(=O)[C@@H](NC(=O)[C@H](CO)NC(=O)[C@H](CC(C)C)NC(=O)[C@H](CC(=O)O)NC(=O)[C@H](CO)NC(=O)[C@@H](NC(=O)[C@H](Cc1ccccc1)NC(=O)[C@@H](NC(=O)CNC(=O)[C@H](CCC(N)=O)NC(=O)C(C)(C)NC(=O)[C@@H](N)Cc1ccc(O)cc1)[C@@H](C)O)[C@@H](C)O)[C@@H](C)CC)C(=O)N[C@@H](CC(=O)O)C(=O)N[C@@H](CO)C(=O)N[C@H](C(=O)N[C@@H](C)C(=O)N[C@@H](C)C(=O)N[C@@H](CCC(N)=O)C(=O)N[C@@H](CC(=O)O)C(=O)N[C@@H](Cc1ccccc1)C(=O)N[C@H](C(=O)N[C@@H](CCC(=O)O)C(=O)N[C@@H](Cc1c[nH]c2ccccc12)C(=O)N[C@@H](CC(C)C)C(=O)N[C@@H](CCCCN)C(=O)N[C@@H](C)C(=O)NCC(=O)NCC(=O)N1CCC[C@H]1C(=O)N[C@@H](CO)C(=O)N[C@@H](CO)C(=O)NCC(=O)N[C@@H](C)C(=O)N1CCC[C@H]1C(=O)N1CCC[C@H]1C(=O)N1CCC[C@H]1C(=O)N[C@@H](CO)C(N)=O)[C@@H](C)CC)[C@@H](C)CC)C(=O)O
# B4: exendin-4 peptide analogue SEQ ID NO: 46 (peptide)
# peptide: Y[Aib]QGTFTSDLSIQK([γGlu-Palmitoyl])EKRAVQLFIEWLKNGGPSSGAPPPS-NH2
# modifications: N-terminus assumed
# SMILES: CCCCCCCCCCCCCCCC(=O)N[C@@H](CCC(=O)NCCCC[C@H](NC(=O)[C@H](CCC(N)=O)NC(=O)[C@@H](NC(=O)[C@H](CO)NC(=O)[C@H](CC(C)C)NC(=O)[C@H](CC(=O)O)NC(=O)[C@H](CO)NC(=O)[C@@H](NC(=O)[C@H](Cc1ccccc1)NC(=O)[C@@H](NC(=O)CNC(=O)[C@H](CCC(N)=O)NC(=O)C(C)(C)NC(=O)[C@@H](N)Cc1ccc(O)cc1)[C@@H](C)O)[C@@H](C)O)[C@@H](C)CC)C(=O)N[C@@H](CCC(=O)O)C(=O)N[C@@H](CCCCN)C(=O)N[C@@H](CCCNC(=N)N)C(=O)N[C@@H](C)C(=O)N[C@H](C(=O)N[C@@H](CCC(N)=O)C(=O)N[C@@H](CC(C)C)C(=O)N[C@@H](Cc1ccccc1)C(=O)N[C@H](C(=O)N[C@@H](CCC(=O)O)C(=O)N[C@@H](Cc1c[nH]c2ccccc12)C(=O)N[C@@H](CC(C)C)C(=O)N[C@@H](CCCCN)C(=O)N[C@@H](CC(N)=O)C(=O)NCC(=O)NCC(=O)N1CCC[C@H]1C(=O)N[C@@H](CO)C(=O)N[C@@H](CO)C(=O)NCC(=O)N[C@@H](C)C(=O)N1CCC[C@H]1C(=O)N1CCC[C@H]1C(=O)N1CCC[C@H]1C(=O)N[C@@H](CO)C(N)=O)[C@@H](C)CC)C(C)C)C(=O)O
# B5: exendin-4 peptide analogue SEQ ID NO: 44 (peptide)
# peptide: Y[Aib]QGTFTSDLSIQK([γGlu-Palmitoyl])DKRAAQDFIEWLKKGGPSSGAPPPS-NH2
# modifications: N-terminus assumed
# SMILES: CCCCCCCCCCCCCCCC(=O)N[C@@H](CCC(=O)NCCCC[C@H](NC(=O)[C@H](CCC(N)=O)NC(=O)[C@@H](NC(=O)[C@H](CO)NC(=O)[C@H](CC(C)C)NC(=O)[C@H](CC(=O)O)NC(=O)[C@H](CO)NC(=O)[C@@H](NC(=O)[C@H](Cc1ccccc1)NC(=O)[C@@H](NC(=O)CNC(=O)[C@H](CCC(N)=O)NC(=O)C(C)(C)NC(=O)[C@@H](N)Cc1ccc(O)cc1)[C@@H](C)O)[C@@H](C)O)[C@@H](C)CC)C(=O)N[C@@H](CC(=O)O)C(=O)N[C@@H](CCCCN)C(=O)N[C@@H](CCCNC(=N)N)C(=O)N[C@@H](C)C(=O)N[C@@H](C)C(=O)N[C@@H](CCC(N)=O)C(=O)N[C@@H](CC(=O)O)C(=O)N[C@@H](Cc1ccccc1)C(=O)N[C@H](C(=O)N[C@@H](CCC(=O)O)C(=O)N[C@@H](Cc1c[nH]c2ccccc12)C(=O)N[C@@H](CC(C)C)C(=O)N[C@@H](CCCCN)C(=O)N[C@@H](CCCCN)C(=O)NCC(=O)NCC(=O)N1CCC[C@H]1C(=O)N[C@@H](CO)C(=O)N[C@@H](CO)C(=O)NCC(=O)N[C@@H](C)C(=O)N1CCC[C@H]1C(=O)N1CCC[C@H]1C(=O)N1CCC[C@H]1C(=O)N[C@@H](CO)C(N)=O)[C@@H](C)CC)C(=O)O
# B6: exendin-4 peptide analogue SEQ ID NO: 48 (peptide)
# peptide: Y[Aib]QGTFTSDLSIQK([γGlu-Palmitoyl])DSEAAQDFIEWLKAGGPSSGAPPPS-NH2
# modifications: N-terminus assumed
# SMILES: CCCCCCCCCCCCCCCC(=O)N[C@@H](CCC(=O)NCCCC[C@H](NC(=O)[C@H](CCC(N)=O)NC(=O)[C@@H](NC(=O)[C@H](CO)NC(=O)[C@H](CC(C)C)NC(=O)[C@H](CC(=O)O)NC(=O)[C@H](CO)NC(=O)[C@@H](NC(=O)[C@H](Cc1ccccc1)NC(=O)[C@@H](NC(=O)CNC(=O)[C@H](CCC(N)=O)NC(=O)C(C)(C)NC(=O)[C@@H](N)Cc1ccc(O)cc1)[C@@H](C)O)[C@@H](C)O)[C@@H](C)CC)C(=O)N[C@@H](CC(=O)O)C(=O)N[C@@H](CO)C(=O)N[C@@H](CCC(=O)O)C(=O)N[C@@H](C)C(=O)N[C@@H](C)C(=O)N[C@@H](CCC(N)=O)C(=O)N[C@@H](CC(=O)O)C(=O)N[C@@H](Cc1ccccc1)C(=O)N[C@H](C(=O)N[C@@H](CCC(=O)O)C(=O)N[C@@H](Cc1c[nH]c2ccccc12)C(=O)N[C@@H](CC(C)C)C(=O)N[C@@H](CCCCN)C(=O)N[C@@H](C)C(=O)NCC(=O)NCC(=O)N1CCC[C@H]1C(=O)N[C@@H](CO)C(=O)N[C@@H](CO)C(=O)NCC(=O)N[C@@H](C)C(=O)N1CCC[C@H]1C(=O)N1CCC[C@H]1C(=O)N1CCC[C@H]1C(=O)N[C@@H](CO)C(N)=O)[C@@H](C)CC)C(=O)O
# Target: human GLP-1 receptor (human, UniProt P43220 24-463)
# Test: cell-based or functional assay
row,Binder,EC50 hGLP-1 R [nM]
1,B1,0.0114
2,B2,0.0156
3,B3,0.0172
4,B4,0.0235
5,B5,0.0097
6,B6,0.0101

# Target: human glucagon receptor (human, UniProt P47871 26-477)
# Test: cell-based or functional assay
# Chain of human glucagon receptor (P47871 26-477): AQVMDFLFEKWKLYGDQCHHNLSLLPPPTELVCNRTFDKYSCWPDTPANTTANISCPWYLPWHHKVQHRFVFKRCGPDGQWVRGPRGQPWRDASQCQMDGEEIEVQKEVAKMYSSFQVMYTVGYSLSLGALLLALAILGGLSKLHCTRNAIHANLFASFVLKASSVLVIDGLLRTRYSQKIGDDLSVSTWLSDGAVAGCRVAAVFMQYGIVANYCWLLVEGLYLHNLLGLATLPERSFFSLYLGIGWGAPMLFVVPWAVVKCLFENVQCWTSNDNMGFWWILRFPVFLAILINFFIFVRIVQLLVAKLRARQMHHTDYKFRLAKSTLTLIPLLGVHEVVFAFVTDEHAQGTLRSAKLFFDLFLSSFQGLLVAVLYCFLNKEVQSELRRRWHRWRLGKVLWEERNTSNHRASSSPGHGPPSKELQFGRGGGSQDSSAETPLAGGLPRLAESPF
row,Binder,EC50 hGLUC R [nM]
1,B1,0.0797
2,B2,2.39
3,B3,0.195
4,B4,0.53
5,B5,0.0552
6,B6,0.478

# Target: T1, human GIP receptor
# Test: cell-based or functional assay
row,Binder,EC50 hGIP R [nM]
1,B1,0.0234
2,B2,0.0442
3,B3,0.0456
4,B4,0.0202
5,B5,0.0255
6,B6,0.0158
